# Measurements taken from patent publication US20120301493A1 (UNIVERSIDADE DE SANTIAGO DE COMPOSTELA, published 2012).
# Target: muNS-Mi, region 448-635 of avian reovirus S1133 muNS protein (avian Orthoreovirus (avian reovirus …))
# Assay: co-expression with muNS-Mi in CEF cells, anti-HA immunofluorescence
row,Binder,binding result
1,muNS (1-380)-HA (other) MASTKWGDKPMSVSMSHDGSSIRSAASQFLSGPLFHSTPIPPQRKTVLLKFMIGDELVTVQGALAPFDEYWYDNQPLLAQAVEMLASADRLRQFEHYEKFLLKKGHQITEIMNRLRLFFTDVLKVKMEADALPALAQYLMVGTLEAVSTADSPDACVPVTSKILAKQQTIAKSPGRLDEEEYNVIRSRFLTHEVFDLTSDLPGVQPFMDMYYATVPRADSTGWCVYRRKGLLIHAPDEQFSDLTIFSTRLTASRELQLVAGDVAVACFDLMDVSDIAPSHHASVQEERTLGTSRYSNVTANDHPLVFFSPSALRWAIDHACTDSLVSTRNIRVCVGIDPLVTRWTRDGVQEAAILMDDKLPSAGRARMALRTLLLARRSP,no binding
2,muNS (1-154)-HA (other) MASTKWGDKPMSVSMSHDGSSIRSAASQFLSGPLFHSTPIPPQRKTVLLKFMIGDELVTVQGALAPFDEYWYDNQPLLAQAVEMLASADRLRQFEHYEKFLLKKGHQITEIMNRLRLFFTDVLKVKMEADALPALAQYLMVGTLEAVSTADSPD,no binding
3,"muNS (1-448)-HA (other, also called N-terminus domain (muNS(1-448)); N-terminus region) MASTKWGDKPMSVSMSHDGSSIRSAASQFLSGPLFHSTPIPPQRKTVLLKFMIGDELVTVQGALAPFDEYWYDNQPLLAQAVEMLASADRLRQFEHYEKFLLKKGHQITEIMNRLRLFFTDVLKVKMEADALPALAQYLMVGTLEAVSTADSPDACVPVTSKILAKQQTIAKSPGRLDEEEYNVIRSRFLTHEVFDLTSDLPGVQPFMDMYYATVPRADSTGWCVYRRKGLLIHAPDEQFSDLTIFSTRLTASRELQLVAGDVAVACFDLMDVSDIAPSHHASVQEERTLGTSRYSNVTANDHPLVFFSPSALRWAIDHACTDSLVSTRNIRVCVGIDPLVTRWTRDGVQEAAILMDDKLPSAGRARMALRTLLLARRSPMTSFLLGALKQSGGQLMEHYRCDAANRYGSPTVPVSHSPPCSKCPELKEQITKLSSSPLPKIDSNVGP",no binding
